Source: patent US20220235344A1, “TRYPSIN VARIANTS WITH IMPROVED ENZYMATIC PROPERTIES” (BIOPHARMA TRANSLATIONSINSTITUT DESSAU FORSCHUNGS GMBH, priority 2018, published 2022)
Where “and” joins values, the source holds several entries; their conditions need not be identical. Identical values can stand only once.

T1: H-RAHAK(DNP)-OH (acyl acceptor), acyl donor Bz-PGGYRAHAG-OH (Rattus norvegicus, UniProt P00763, D194K/K66E/Y45H/Y65H)
T1 construct: made in house; host or cells: Pichia pastoris X-33
T1 sequence (P00763 24-246 Y45H/Y65H/K66E/D194K): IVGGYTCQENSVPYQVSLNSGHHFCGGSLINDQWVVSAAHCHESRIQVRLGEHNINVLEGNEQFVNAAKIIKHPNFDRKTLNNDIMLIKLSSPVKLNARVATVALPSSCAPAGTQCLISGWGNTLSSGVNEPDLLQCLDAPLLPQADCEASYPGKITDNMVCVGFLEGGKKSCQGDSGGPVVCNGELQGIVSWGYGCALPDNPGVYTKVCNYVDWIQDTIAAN

T2: Bz-AAYRAHAG-OH (acyl donor) / H-RAHAK(DNP)-OH (acyl acceptor) (Rattus norvegicus, UniProt P00763, D194K/K66E/Y45H/Y65H)
T2 construct: monomeric enzyme species (about 24 kDa); made in house; host or cells: Pichia pastoris X-33 (pPICZalphaA, secreted)
T2 sequence (P00763 24-246 Y45H/Y65H/K66E/D194K): T1 sequence (P00763 24-246 Y45H/Y65H/K66E/D194K)

T3: Bz-PGGYRAHAG-OH (acyl donor) (Rattus norvegicus, UniProt P00763, A221T/D194K/E154Y/G219Q/H46F/K102D/K66E/L104F/N146E/Q197A/R101E/S195V/S215G/Y45H/Y65H)
T3 construct: made in house; host or cells: Pichia pastoris X-33
T3 sequence (P00763 24-246 Y45H/H46F/Y65H/K66E/R101E/K102D/L104F/N146E/E154Y/D194K/S195V/Q197A/S215G/G219Q/A221T): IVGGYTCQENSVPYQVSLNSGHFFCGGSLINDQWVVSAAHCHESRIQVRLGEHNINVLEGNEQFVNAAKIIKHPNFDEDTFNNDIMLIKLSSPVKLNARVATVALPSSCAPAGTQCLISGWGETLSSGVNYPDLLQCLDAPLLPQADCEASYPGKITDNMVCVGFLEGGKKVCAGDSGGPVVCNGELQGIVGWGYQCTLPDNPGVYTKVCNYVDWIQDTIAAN

B1: Trypsiligase II (trypsin variant Y39H/Y59H/K60E/D189K) (protein)
chain: T1 sequence (P00763 24-246 Y45H/Y65H/K66E/D194K)
B2: A2C8: Trypsiligase II + H40F, A55A, R96E, K97D, L99F, N143E, E151Y, S190V, Q192A, S214G, G219Q, A221T (protein)
chain: T3 sequence (P00763 24-246 Y45H/H46F/Y65H/K66E/R101E/K102D/L104F/N146E/E154Y/D194K/S195V/Q197A/S215G/G219Q/A221T)

Assays:
Format in all cases: biochemical
[1] = target: T1, H-RAHAK(DNP)-OH (acyl acceptor), acyl donor Bz-PGGYRAHAG-OH; experiment: KM value of the nucleophilic peptide (acyl acceptor); settings: Zinc ions (100 μM): yes; 250 μM Bz-PGGYRAHAG-OH, varying H-RAHAK(DNP)-OH
Protocol: For Trypsiligase II the measurements for KM values of the nucleophilic peptide (acyl acceptor) were carried out in the presence or absence of zinc ions due to its strong zinc ion dependency. In case of variant A2C8 measurements were carried out in the absence of zinc ions.
Transamidation reactions with Trypsiligase II and variant A2C8 were performed in a solution containing 250 μM of the acyl donor Bz-[…]-OH, varying concentrations of the acyl acceptor H-RAHAK(DNP)-OH (0-5000 μM for Trypsiligase II in the absence of zinc ions, 0-1500 μM for Trypsiligase II in the presence of zinc ions, 0-1000 μM for variant A2C8), 0.2-1.5 μM trypsin variant, 100 mM HEPES/NaOH pH 7.8, ±0.1 mM ZnCl2, 100 mM NaCl, 10 mM CaCl2 at 30° C. The reaction was started by the addition of enzyme. For kinetic evaluation of the reaction several aliquots of the reaction mixture were quenched with 25% (v/v) acetic acid at distinct time points within 30 minutes. The composition of the reaction mixture was analyzed by UPCL using method II (see example 1). UV absorption of the 2,4-Dinitrophenyl group (DNP), which is present in the acyl acceptor as well as in the aminolysis product, was detected at 360 nm. To determine the KM value of the nucleophilic peptide the initial rates for the aminolysis reaction were plotted against the corresponding acyl acceptor concentration and fitted to the Michaelis Menten equation. Measurements were performed as duplicates and errors were less than 5%.

[2] = target: T2, Bz-AAYRAHAG-OH (acyl donor) / H-RAHAK(DNP)-OH (acyl acceptor); experiment: Zinc dependence of the transamidation reaction, Trypsiligase II
Protocol: (§1) Model transamidation reactions were performed in a solution containing 15 to 250 μM acyl donor, 2 eq. of the corresponding acyl acceptor, varying concentrations of trypsin variant, 100 mM HEPES/NaOH pH 7.8, ±0.1 mM ZnC12, 100 mM NaCl, 10 mM CaCl2) at 30° C. Acyl donor and acyl acceptor had the same amino acids in P1′-P3′ position, e.g. Bz-[…]+H-RAHAK-OH or Bz-[…]+H-RKKAK-OH. Variations are indicated. The acyl acceptor could be equipped with a 2,4-Dinitrophenyl group (DNP) at the side chain of the terminal lysine, e.g. H-RAHAK(DNP)-OH or H-RKKAK(DNP)-OH. The reactions were started by the addition of enzyme. To record the time course of product formation and/or for kinetic evaluation of the reaction several aliquots of the reaction mixture were quenched with 25% (v/v) acetic acid at distinct time points within up to 4 hours. The composition of the reaction mixture was analyzed by UPCL with method I or II, depending on the absence (method 1) or presence (method II) of a 2,4-dinitrophenyl group within the acyl acceptor (see example 1). Measurements were performed as duplicates and errors were less than 5%.

[3] = test system: Bz-PGGYRAHAG-OH (acyl donor); experiment: Turnover rate of the hydrolysis reaction in the absence of a nucleophilic peptide
Protocol: (§2) Hydrolysis reactions were performed in a solution containing varying concentrations of the acyl donor Bz-[…]-OH (0-5000 μM for Trypsiligase II, 0-1500 μM for variant A2C8), 2 μM trypsin variant, 100 mM HEPES/NaOH pH 7.8, 100 mM NaCl, 10 mM CaCl2 at 30° C. In case of Trypsiligase II the reactions were performed in the presence of 100 μM ZnCl2. The reaction was started by the addition of enzyme. For kinetic evaluation of the reaction several aliquots of the reaction mixture were quenched with 25% (v/v) acetic acid at distinct time points within 30 minutes. The composition of the reaction mixture was analyzed by UPCL using method I (see example 1). UV absorption of the N-terminal benzoyl-group (Bz-), which is present in the acyl donor as well as in the hydrolysis product, was detected at 254 nm. To determine the turnover rate of the hydrolysis reaction (kcat,HL) the initial rates for the hydrolysis reaction were plotted against the corresponding acyl donor concentration and fitted to the Michaelis Menten equation. Measurements were performed as duplicates and errors were less than 5%.

[4] = target: T3, Bz-PGGYRAHAG-OH (acyl donor); experiment: as above; settings: Zinc ions: no; varying Bz-PGGYRAHAG-OH, 2 μM trypsin variant, no nucleophilic peptide
Protocol: as §2

[5] = test system: R1-YRKK-R2 (Bz-PGGYRKKAG-OH) / H-RKKAK(DNP)-OH; experiment: Zinc dependence of the transamidation reaction, A2C8 and K7F11, YRKK; settings: 100 μM acyl donor, 200 μM acyl acceptor
Protocol: as §1

[6] = test system: R1-YRAH-R2 (Bz-PGGYRAHAG-OH) / H-RAHAK(DNP)-OH; experiment: Zinc dependence of the transamidation reaction, A2C8 and K7F11, YRAH
Protocol: as §1

[7] = R1-YRAH-R2, 250 μM acyl donor, 500 μM acyl acceptor, absence of zinc ions
[8] = R1-YRAH-R2, 100 μM acyl donor, 200 μM acyl acceptor, absence of zinc ions

Row | Molecule | Km [1] | dependence for zinc ions [2] | reduction of the product yield in the absence of zinc ions (factor) [2] | kcat, AL^app + Zn^2+ (mkat/mol) ([2]; R1-YRAH-R2, 250 μM acyl donor, 500 μM H-RAHAK(DNP)-OH, 2 μM trypsin variant, 0.1 mM ZnCl2) | product yield + Zn^2+ (%) ([2]; R1-YRAH-R2, 250 μM acyl donor, 500 μM acyl acceptor, 0.1 mM ZnCl2) | kcat, AL^app − Zn^2+ (mkat/mol) [2, 7] [mkat/mol] | product yield − Zn^2+ (%) [2, 7] | drop of apparent turnover rate for the aminolysis reaction in the absence of zinc ions (factor) ([2]; YRAH) | reduction in the enzyme's hydrolysis activity versus Trypsiligase II (factor) [3] | kcat, HL (mkat/mol) [4] [mkat/mol] | kcat, AL^app + Zn^2+ (mkat/mol) ([5]; 0.1 mM ZnCl2) | product yield + Zn^2+ (%) ([5]; 0.1 mM ZnCl2) | kcat, AL^app − Zn^2+ (mkat/mol) ([5]; absence of zinc ions) | product yield − Zn^2+ (%) ([5]; absence of zinc ions) | dependence for zinc ions ([6]; A2C8: substrates with YRAH and YRKH sequence, K7F11: YRAH substrate only) | kcat, AL^app + Zn^2+ (mkat/mol) ([6]; R1-YRAH-R2, 100 μM acyl donor, 200 μM acyl acceptor, 2 μM trypsin variant, 0.1 mM ZnCl2) | product yield + Zn^2+ (%) ([6]; R1-YRAH-R2, 100 μM acyl donor, 200 μM acyl acceptor, 0.1 mM ZnCl2) | kcat, AL^app − Zn^2+ (mkat/mol) [6, 8] [mkat/mol] | product yield − Zn^2+ (%) [6, 8] [%]
1 | B1 | 143 µM and 144 µM | strong dependence for zinc ions | 4 | 11.19 | 18% and 18.1% | 0.89 | 4% and 4.2% | 12 |  |  |  |  |  |  |  |  |  |  | 
2 | B2 |  |  |  |  |  |  |  |  | 7 | 86.6 | 18.04 | 59.0 | 17.7 | 59.7 | no dependence for zinc ions | 9.46 | 53.3 | 14.51 | 50.4
